Results reported in patent US20250177373A1.

Key:
[1] = target: gp41-inter (HIV-1; HIV-1 clade A isolate 92UG037.8); assay: fluorescence anisotropy/polarization, FITC-labeled 2F5 Fab held at 50 nM, gp41-inter titrated; the concentration read is that of gp41-inter
[2] = target: gp41-inter (HIV-1; HIV-1 clade A isolate 92UG037.8); assay: fluorescence anisotropy/polarization; FITC-4E10 Fab, gp41-inter titrated
[3] = target: gp41-inter (HIV-1; HIV-1 clade A isolate 92UG037.8); assay: fluorescence anisotropy/polarization, FITC-labeled 4E10 Fab, gp41-inter titrated; the concentration read is that of gp41-inter

How did the EC50 (read off the curve) [1] turn out when 2F5 Fab was run?
Its EC50 (read off the curve) is 10 nM.

For 4E10 Fab, which Kd [2] is on record?
The Kd was 23 nM.

What about the EC50 (read off the curve) [3] of the same substance?
Its EC50 (read off the curve) is 20 nM.
